Reference: patent US20030119169

T1: in vitro translated GST-CPP32 precursor, P42574
T1 chain: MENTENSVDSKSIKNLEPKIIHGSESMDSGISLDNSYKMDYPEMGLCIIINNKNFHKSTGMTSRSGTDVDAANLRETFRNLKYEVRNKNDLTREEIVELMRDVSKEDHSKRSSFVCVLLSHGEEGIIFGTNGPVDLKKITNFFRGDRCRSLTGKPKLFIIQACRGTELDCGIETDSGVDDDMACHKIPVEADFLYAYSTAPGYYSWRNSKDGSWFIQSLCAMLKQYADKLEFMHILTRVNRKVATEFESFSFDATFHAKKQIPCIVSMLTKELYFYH

T2: in vitro translated GST-Mch3α2 precursor
T2 sequence (P55210 whole entry, looked up): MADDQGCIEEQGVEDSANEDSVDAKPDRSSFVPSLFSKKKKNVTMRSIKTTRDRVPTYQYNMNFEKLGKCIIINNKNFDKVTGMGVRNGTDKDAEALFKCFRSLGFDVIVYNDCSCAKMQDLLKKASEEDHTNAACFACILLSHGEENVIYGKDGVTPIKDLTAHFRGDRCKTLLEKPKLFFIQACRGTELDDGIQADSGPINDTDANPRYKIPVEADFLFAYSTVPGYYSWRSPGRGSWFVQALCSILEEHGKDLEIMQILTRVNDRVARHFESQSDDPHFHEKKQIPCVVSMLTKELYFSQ

T3: tetrapeptide substrate DEVD-AMC
T3 chain: DEVD

T4: YVADamc
T4 chain: YVAD

B1: Mch3α, bacterially expressed recombinant active enzyme (protein)
chain: AKPDRSSFVPSLFSKKKKNVTMRSIKTTRDRVPTYQYNMNFEKLGKCIIINNKNFDKVTGMGVRNGTDKDAEALFKCFRSLGFDVIVYNDCSCAKMQDLLKKASEEDHTNAACFACILLSHGEENVIYGKDGVTPIKDLTAHFRGDRCKTLLEKPKLFFIQACRGTELDDGIQADSGPINDTDANPRYKIPVEADFLFAYSTVPGYYSWRSPGRGSWFVQALCSILEEHGKDLEIMQILTRVNDRVARHFESQSDDPHFHEKKQIPCVVSMLTKELYFSQ
B2: CPP32, bacterially expressed recombinant active enzyme (protein)
chain: SGISLDNSYKMDYPEMGLCIIINNKNFHKSTGMTSRSGTDVDAANLRETFRNLKYEVRNKNDLTREEIVELMRDVSKEDHSKRSSFVCVLLSHGEEGIIFGTNGPVDLKKITNFFRGDRCRSLTGKPKLFIIQACRGTELDCGIETDSGVDDDMACHKIPVEADFLYAYSTAPGYYSWRNSKDGSWFIQSLCAMLKQYADKLEFMHILTRVNRKVATEFESFSFDATFHAKKQIPCIVSMLTKELYFYH

Tests used:
[1] = molecular target: T1, in vitro translated GST-CPP32 …
[2] = molecular target: T2, in vitro translated GST-Mch3α2 precursor
[3] = molecular target: T3, tetrapeptide substrate DEVD-AMC
YVADamc = molecular target: T4, YVADamc
[4] = molecular target: in vitro translated GST control [GST: P08515]
Chain of in vitro translated GST control [GST: P08515] (P08515 whole entry): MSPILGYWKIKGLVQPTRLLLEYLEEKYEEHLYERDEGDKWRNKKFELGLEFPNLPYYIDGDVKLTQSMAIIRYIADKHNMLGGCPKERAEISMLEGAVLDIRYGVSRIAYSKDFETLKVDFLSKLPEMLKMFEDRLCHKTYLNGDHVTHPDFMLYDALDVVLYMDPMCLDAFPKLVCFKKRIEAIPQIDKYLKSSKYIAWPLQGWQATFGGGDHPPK

Protein	cleavage of 35S-labelled in vitro translated precursor, SDS-PAGE and autoradiography [1]	cleavage of 35S-labelled in vitro translated precursor, SDS-PAGE and autoradiography [2]	Km (DEVDamc, µM) [3]	kcat/Km (DEVDamc, mM^-1s^-1) [3]	Km (YVADamc, µM) (YVADamc)	kcat/Km (YVADamc, mM^-1 s^-1) (YVADamc)	cleavage of 35S-labelled in vitro translated protein, SDS-PAGE and autoradiography [4]	cleavage of resin-immobilized 35S-labelled precursor, soluble products on gradient SDS gel [2]
B1	No cleavage was observed in the buffer control or the Mch3α reaction	Mch3α exhibited significantly less activity than CPP32 towards the in vitro translated GST-Mch3α, a similar cleavage product was observed	51 µM	11 mM⁻¹ s⁻¹	–	–	–	–
B2	CPP32 showed a very weak activity towards its precursor and generated a faint GST-prodomain band of 30 kDa size	incubation of CPP32 with the in vitro translated GST-Mch3α generated a GST-prodomain cleavage product of molecular mass 32 kDa	–	1600 mM⁻¹ s⁻¹	> 500 µM	67 M⁻¹ s⁻¹	No cleavage was observed when CPP32 was incubated with an in vitro translated GST control	CPP32 was observed to efficiently cleave the GST-Mch3α precursor
